Test results reported in paper PMC13061610.

Biological target: Dob3 (Nocardia ninae)
Test: SEC; Superdex 200, 20 mM HEPES pH 8.0, 10 mM MgCl2, 50 mM NaCl, 10% glycerol; compared with Bio-Rad gel filtration standards

stoichiometry N: 2
Substance: Dob3 (enzyme)
